Data as given in patent US20130323786A1 (Biogen, published 2013).
Numbering of substitutions follows the chain as printed. In names and notes the source's numbering stands. One block for each binder: values may come before it.

Tests used:
LINGO-Fc [1] = target: T1, LINGO-Fc (human, UniProt Q96FE5 40-538, limits assumed); assay: direct ELISA on LINGO-Fc; OD450 at saturation relative to Li33;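 note: binding to plate-coated LINGO-Fc read by OD450, with the value at maximal saturation divided by the corresponding Li33 value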
T1 construct: not shown: Fc part
T1 sequence: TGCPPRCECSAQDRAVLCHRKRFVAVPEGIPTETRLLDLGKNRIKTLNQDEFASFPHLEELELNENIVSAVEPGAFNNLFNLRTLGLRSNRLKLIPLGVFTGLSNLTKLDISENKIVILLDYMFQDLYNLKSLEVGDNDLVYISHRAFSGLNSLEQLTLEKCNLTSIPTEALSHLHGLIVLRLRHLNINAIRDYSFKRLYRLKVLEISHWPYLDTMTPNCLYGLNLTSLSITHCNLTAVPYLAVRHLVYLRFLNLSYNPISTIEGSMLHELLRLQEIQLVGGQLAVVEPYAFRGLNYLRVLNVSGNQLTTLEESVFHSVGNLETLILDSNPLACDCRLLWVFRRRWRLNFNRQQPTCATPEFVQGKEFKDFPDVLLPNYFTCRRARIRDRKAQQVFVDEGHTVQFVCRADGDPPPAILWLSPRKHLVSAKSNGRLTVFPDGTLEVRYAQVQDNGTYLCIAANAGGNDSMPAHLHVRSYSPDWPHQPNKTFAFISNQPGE

LINGO-Fc [2] = target: T1, LINGO-Fc; assay: direct ELISA on LINGO-Fc; half-maximal concentration relative to Li33;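 note: direct binding ELISA on plates coated with LINGO-Fc, concentration giving half of saturating binding, expressed as a ratio to the same value for the comparator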
[3] = target: T2, human Fc receptor CD16-GST fusion protein (human, UniProt P08637 17-208); assay: ALPHA competition vs biotinylated wild-type IgG1; receptor-GST
T2 construct: not shown: GST

[4] = target: T3, human Fc receptor CD32a-GST fusion protein (human, UniProt P12318 34-217); assay: as above
T3 construct: not shown: GST
T3 sequence (looked up): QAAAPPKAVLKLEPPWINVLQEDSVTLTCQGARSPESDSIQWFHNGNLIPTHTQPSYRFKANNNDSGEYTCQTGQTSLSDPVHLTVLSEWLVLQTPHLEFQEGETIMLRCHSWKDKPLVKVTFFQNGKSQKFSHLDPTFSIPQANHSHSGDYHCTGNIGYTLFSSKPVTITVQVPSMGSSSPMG

[5] = target: T4, human Fc receptor CD32b-GST fusion protein (human, UniProt P31994 43-217); assay: as above
T4 construct: not shown: GST
T4 sequence (looked up): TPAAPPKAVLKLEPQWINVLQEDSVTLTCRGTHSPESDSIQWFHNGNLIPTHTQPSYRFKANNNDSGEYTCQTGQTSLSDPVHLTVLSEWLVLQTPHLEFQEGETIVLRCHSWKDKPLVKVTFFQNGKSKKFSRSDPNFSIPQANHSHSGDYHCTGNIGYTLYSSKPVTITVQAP

[6] = target: T2, human Fc receptor CD16-GST fusion …; assay: ALPHA competition vs biotinylated wild-type IgG1; relative to wt
[7] = target: T3, human Fc receptor CD32a-GST fusion …; assay: as above
[8] = target: T4, human Fc receptor CD32b-GST fusion …; assay: as above
[9] = target: T5, human Fc receptor CD64-GST fusion protein (human, UniProt P12314 16-292, limits assumed); assay: as above
T5 construct: not shown: GST

B1: Li33 variant W104S (SEQ ID NO:157) (antibody, V domains shown)
VH: EVQLLESGGGLVQPGGSLRLSCAASGFTFSIYPMFWVRQAPGKGLEWVSWIGPSGGITKYADSVKGRFTISRDNSKNTLYLQMNSLRAEDTATYYCAREGHNDSYFDLWGRGTLVTVSS
VL: DIQMTQSPGTLSLSPGERATLSCRASQSVSSYLAWYQQKPGQAPRLLIYDASNRATGIPARFSGSGSGTEFTLTISSLQSEDFAVYYCQQYDKWPLTFGGGTKVEIKR
notes: unchanged chain from WT Li33
Plateau Ratio (LINGO-Fc [1]): 0.85 ratio
ELISA Ratio (LINGO-Fc [2]): 2.7 ratio

B2: Li33 variant W104T (SEQ ID NO:178) (antibody, V domains shown)
VH: B1 VH with S104T
VL: B1 VL
notes: unchanged chain from WT Li33
Plateau Ratio (LINGO-Fc [1]): 0.33 ratio
ELISA Ratio (LINGO-Fc [2]): 3.5 ratio

Continued, values first:

Plateau Ratio (LINGO-Fc [1]): 0.94 ratio
ELISA Ratio (LINGO-Fc [2]): 2.8 ratio
B3: Li33 variant W104V (SEQ ID NO:155) (antibody, V domains shown)
VH: B1 VH with S104V
VL: B1 VL
notes: unchanged chain from WT Li33

IC50 [3]: 179 µg/mL
IC50 [4]: 365 µg/mL
IC50 [5]: 350 µg/mL
fold decrease from wt [6]: 50 fold
fold decrease from wt [7]: 60 fold
fold decrease from wt [8]: 15 fold
fold decrease from wt [9]: > 100 fold
B4: Li81 (agly) (antibody, human IgG1)
heavy: not shown
VL: DIQMTQSPATLSLSPGERATLSCRASQSVSSYLAWYQQKPGQAPRLLIYDASNRATGIPARFSGSGSGTDFTLTISSLEPEDFAVYYCQQRSNWPMYTFGQGTKLEIK
notes: Aglycosylated fully human IgG1 (single T to A change in the heavy chain); also called Li81 Ig1agly; Li81 Mab; copies: 2 + 2
